Laboratory results taken from US20240010748A1 (SHANGHAI QILU PHARMACEUTICAL RESEARCH AND DEVELOPMENT CENTRE, published 2024).

What was measured:
[1] = target: T1, human CD3 (hCD3) naturally expressed on Jurkat cells (human, UniProt P07766 23-207); assay: FACS on Jurkat cells (natural hCD3), fluorescent anti-human IgG secondary antibody
T1 construct: whole, on cells; CD3 on cells is a complex of several chains; also called CD3 receptors on Jurkat-NFAT cells
Method: (§1) The binding situation of the anti-CD3-CLDN18.2 bispecific antibodies to stably-transfected HEK293 cells expressing hCLDN18.2 (HEK293-hCLDN18.2) and T lymphocytes naturally expressing hCD3 (Jurkat) were detected by using FACS.
HEK293-hCLDN18.2 or Jurkat cells were collected and re-suspended with FACS buffer (PBS+1% BSA+0.5 mM EDTA), after adjusting the cell concentration, 1E5 cells per well were added into a 96-well plate, and then the antibody after gradient dilution was added according to the preset concentration, wherein the negative control was human IgG1AA (Negative-IgG1AA), the positive control of CLDN18.2 was antibody 6#AA, and the positive control of CD3 was antibody h160C9AA. […]

[2] = target: T2, human Claudin 18.2 (hCLDN18.2) on stably-transfected HEK293 cells (human, UniProt P56856-2 1-261); assay: FACS on HEK293-hCLDN18.2 cells
T2 construct: whole, on cells; also called CLDN18A2; HEK293-hCLDN18.2
T2 sequence (looked up): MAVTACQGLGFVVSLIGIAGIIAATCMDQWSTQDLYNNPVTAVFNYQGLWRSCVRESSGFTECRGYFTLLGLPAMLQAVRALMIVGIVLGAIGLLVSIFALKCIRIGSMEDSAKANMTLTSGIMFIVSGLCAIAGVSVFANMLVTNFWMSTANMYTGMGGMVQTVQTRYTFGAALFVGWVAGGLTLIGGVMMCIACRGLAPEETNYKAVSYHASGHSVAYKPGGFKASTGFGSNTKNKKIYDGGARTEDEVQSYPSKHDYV
Method: as §1
(§2) HEK293-hCLDN18.2 or Jurkat cells were collected and re-suspended with FACS buffer (PBS+1% BSA+0.5 mM EDTA), after adjusting the cell concentration, 1E5 cells per well were added into a 96-well plate, and then the antibody after gradient dilution was added according to the preset concentration, wherein the negative control was human IgG1AA (Negative-IgG1AA), the positive control of CLDN18.2 was antibody 6#AA, and the positive control of CD3 was antibody h160C9AA. Following incubation in a 4° C. shaking table for 2 h, the mixture was centrifugally washed twice with FACS buffer, added with fluorescently labeled anti-human IgG secondary antibody, 100 μL per well; after incubation in a 4° C. shaking table for 1 h, the mixture was centrifugally washed twice with FACS buffer, the cells were filtered to a 96-well plate, and then the prepared sample was detected on a flow cytometer; the mean fluorescence intensity (hereinafter referred to as MFI) for each concentration was calculated by software, and then the median effective concentration (hereinafter referred to as EC₅₀) and the top mean fluorescence intensity (Top MFI) were calculated by GraphPad software, and the results were shown in Table 3.

[3] = target: T1, human CD3 (hCD3) naturally expressed on …; assay: FACS on Jurkat cells
Method: as §1, §2

[4] = target: T3, Cynomolgus macaques Claudin 18 (cynoCLDN18) on stably-transfected HEK293 cells (Cynomolgus macaques, UniProt A0A2K5VVB4 1-261); assay: FACS on HEK293-cynoCLDN18 cells
T3 chain: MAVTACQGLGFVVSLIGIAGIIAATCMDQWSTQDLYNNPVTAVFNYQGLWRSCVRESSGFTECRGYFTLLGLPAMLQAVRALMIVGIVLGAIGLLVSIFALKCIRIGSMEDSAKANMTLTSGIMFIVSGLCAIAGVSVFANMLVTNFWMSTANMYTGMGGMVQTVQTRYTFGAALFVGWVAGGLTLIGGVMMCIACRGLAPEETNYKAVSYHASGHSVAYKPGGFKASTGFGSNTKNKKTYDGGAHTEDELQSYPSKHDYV

[5] = target: T2, human Claudin 18.2 (hCLDN18.2) on …; assay: cell-based or functional assay
[6] = target: T2, human Claudin 18.2 (hCLDN18.2) on …; assay: cell-based or functional assay; remark: listed apart in the source
[7] = target: T1, human CD3 (hCD3) naturally expressed on …; assay: cell-based or functional assay
human CD3 E&D protein = target: T4, human CD3 E&D protein (human, UniProt P07766 23-126; P04234 22-105); assay: SPR (Biacore 8K), CD3 E&D immobilised by amino coupling, antibody as analyte, 1:1 fit
T4 construct: Soluble CD3 epsilon and delta protein immobilised on the chip; also called Humanized CD3 E&D; humanized CD3 E&D protein
T4 sequence (P07766 23-126, chain 1 of 2): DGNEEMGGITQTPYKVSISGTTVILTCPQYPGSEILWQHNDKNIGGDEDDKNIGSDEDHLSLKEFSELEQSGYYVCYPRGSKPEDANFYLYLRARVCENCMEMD
T4 sequence (P04234 22-105, chain 2 of 2): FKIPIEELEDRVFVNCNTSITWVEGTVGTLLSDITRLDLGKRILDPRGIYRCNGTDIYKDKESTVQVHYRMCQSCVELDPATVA
Method: The affinity and kinetic properties of the bispecific antibodies to human CD3 E&D proteins were determined by surface plasmon resonance (SPR) using a Biacore 8K instrument. The human CD3 E&D protein was immobilized on the experimental channel of CMS chip by amino coupling, then the antibody to be tested was subjected to doubling dilution to serial concentrations, flowed through the surfaces of an experimental channel and a reference channel successively for binding, followed by dissociation, the binding and dissociation curve of each sample was obtained, and the results were analyzed and evaluated by Biacore Insight Evaluation software.
The bispecific antibodies of the present disclosure were diluted to 400 nM with 1×HBS-EP+ (10 mM HEPES, pH 7.4, 150 mM NaCl, 3 mM EDTA, 0.05% P20) running buffer, then subjected to doubling dilution to 1.56 nM with this buffer, thus obtaining antibody solutions in a range of concentrations from 400 nM to 1.56 nM. At the end of each experiment, the chip was regenerated by washing with 3M MgCl₂ solution at a flow rate of 30 μL/min for 30 s to remove captured antibody together with antigen. The raw data were analyzed using Biacore Insight Evaluation Software (version 2.0.15.12933) with a 1:1 fit model and affinity and kinetic experimental data of the resulting bispecific antibodies were shown in Table 4.

T1 sequence (P07766 23-207): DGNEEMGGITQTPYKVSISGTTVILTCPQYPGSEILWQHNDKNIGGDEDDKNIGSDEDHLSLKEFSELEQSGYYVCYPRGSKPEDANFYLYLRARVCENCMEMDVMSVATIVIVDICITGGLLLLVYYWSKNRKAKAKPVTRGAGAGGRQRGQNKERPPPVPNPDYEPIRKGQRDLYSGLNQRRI

B1: 6#AA (antibody, human IgG1, kappa, L234A L235A, V domains shown)
VH: QVQLVQSGAEVKKPGASVKVSCKASGYIFTNYWIHWVRQAPGQGLEWMGRIYPGTGNTYYNEKFTGRVTMTRDTSTSTVYMELSSLRSEDTAVYYCAREGYGKGNSMDYWGQGTTVTVSS
VL: DIVMTQSPDSLAVSLGERVTMNCKSSQSLLNAGNQKNYLTWYQQKPGQPPKLLFYWASTRESGVPDRFSGSGSGTDFTLTISSVQAEDVAVYHCQNAYYYPYTFGGGTKLEIKR
notes: Anti-human CLDN18.2 full-length antibody, IgG1 Fc with L234A/L235A
Which results are given for B1?
binding result [1]: no binding (tested: about 2e-7 M (log M about -6.7)); EC50 [2]: 0.95 nM; Top mean fluorescence intensity (Top MFI) [2]: 18600 MFI; Top mean fluorescence intensity (Top MFI) [3]: 26 MFI; EC50 [4]: 0.62 nM; MFI (Max) [4]: 39500 MFI; ADCC activity, EC50 [5]: 0.771 nM; ADCC activity, Maximum lysis (%) [5]: 6.92%; T cell activation, CD25+CD69+ % [6]: 3.18%; TDCC activity, EC50 [6]: 1.45 nM; TDCC activity, Maximum lysis (%) [6]: 16.3%; Jurkat-NFAT luciferase reporter, Fluorescence value (Max) [7]: 0

B2: h160C9AA (antibody, human IgG1, lambda, L234A L235A, V domains shown)
VH: EVKLVESGGGLVQPGGSLKLSCAASGFTFNTYAMNWVRQAPGKGLEWVARIRSKYNNYATYYADSVKDRFTISRDDAKNTLYLQMNNLRTEDTAVYYCVRHGNFGNSYVSWFAYWGQGTLVTVSS
VL: QAVVTQEPSLTVSPGGTVTLTCRSSTGAVTTSNYANWVQQKPGQAPRGLIGGTNKRAPGTPARFSGSLLGGKAALTLSGAQPEDEAEYYCALWYSNLWVFGGGTKLTVLG
notes: Anti-CD3 full-length antibody, Fc with L234A/L235A
Which “Top mean fluorescence intensity (Top MFI)” value [2] does the source give for B2 here?
The value was 897 MFI.

What about the EC50 [3] of the same binder?
Its EC50 is 0.13 nM.

What about the “Top mean fluorescence intensity (Top MFI)” value [3] of the same binder?
The value was 2020 MFI.

What about the “MFI (Max)” value [4] of the same binder?
Its value is 1040 MFI.

What about the “Jurkat-NFAT luciferase reporter, EC50” value [7] of the same binder?
Its value is 0.32 nM.

What about the “Jurkat-NFAT luciferase reporter, Fluorescence value (Max)” value [7] of the same binder?
Its value is 220000.

B3: 31905-44AA (bispecific antibody, human IgG1, kappa, L234A L235A)
heavy 1: not shown
heavy 2: QVQLVQSGAEVKKPGASVKVSCKASGYIFTNYWIHWVRQAPGQGLEWMGRIYPGTGNTYYNEKFTGRVTMTRDTSTSTVYMELSSLRSEDTAVYYCAREGYGKGNSMDYWGQGTTVTVSSASTKGPSVFPLAPSSKSTSGGTAALGCLVKDYFPEPVTVSWNSGALTSGVHTFPAVLQSSGLYSLSSVVTVPSSSLGTQTYICNVNHKPSNTKVDKKVEPKSCDKTHTCPPCPAPEAAGGPSVFLFPPKPKDTLMISRTPEVTCVVVDVSHEDPEVKFNWYVDGVEVHNAKTKPREEQYNSTYRVVSVLTVLHQDWLNGKEYKCKVSNKALPAPIEKTISKAKGQPREPQVCTLPPSRDELTKNQVSLSCAVKGFYPSDIAVEWESNGQPENNYKTTPPVLDSDGSFFLVSKLTVDKSRWQQGNVFSCSVMHEALHNRYTQKSLSLSPGK
light: not shown
notes: Full-length 6#AA with one anti-CD3 scFv of h160C9AA on the C-terminus of one heavy chain; knob-into-hole; Fc with L234A/L235A; also called anti-CD3-CLDN18.2 bispecific antibody; CD3 monovalent antibody
What does the source list for B3?
EC50 [2]: 1.18 nM; Top mean fluorescence intensity (Top MFI) [2]: 31000 MFI; EC50 [3]: 9.3 nM; Top mean fluorescence intensity (Top MFI) [3]: 1700 MFI; EC50 [4]: 0.84 nM; MFI (Max) [4]: 41800 MFI; ADCC activity, EC50 [5]: 0.532 nM; ADCC activity, Maximum lysis (%) [5]: 7.03%; T cell activation, CD25+CD69+ % [6]: 33.4%; T cell activation, EC50 [6]: 0.049 nM; TDCC activity, EC50 [6]: 0.54 nM; TDCC activity, Maximum lysis (%) [6]: 30%; Jurkat-NFAT luciferase reporter, EC50 [7]: 124 nM; Jurkat-NFAT luciferase reporter, Fluorescence value (Max) [7]: 114000; Kd (human CD3 E&D protein): 17.9 nM; koff (human CD3 E&D protein): 0.00365 s⁻¹; kon (human CD3 E&D protein): 204000 M⁻¹ s⁻¹
